What follows are binders tested against human 4-1BB ECD (human, UniProt Q07011).
human 4-1BB ECD, sequence (Q07011 24-186): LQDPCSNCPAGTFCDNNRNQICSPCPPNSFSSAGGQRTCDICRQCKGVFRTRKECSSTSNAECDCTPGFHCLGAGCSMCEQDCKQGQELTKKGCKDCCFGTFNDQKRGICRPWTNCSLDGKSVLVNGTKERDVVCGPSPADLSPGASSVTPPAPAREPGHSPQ

| Binder | Kd |
| --- | --- |
| ZW104 (antibody, V domains shown) VH: QVQLQQSGAELARPGASVKMSCKASGYIFTTYAMHWVKQRPGQGLEWIGYINPTTVYTIYNQKFKDKATLTADKSSSTAYMQLSSLTSEDSAVYYCARLGGHWYFDVWGAGTTVTVSS VL: not shown | 0.0474 nM |
| ZW103 (antibody, V domains shown) VH: QVQLQQSGAELVRPGVSVKISCKGSGYTFTDYAMHWVKQSHVKSLEWIGGISTYNGDASYNQKFKGKATMTVDKSSRTAYMELVRLTSEDSAIYYCAPSNYGYAMDYWGQGTSVTVSS VL: not shown | 0.265 nM |

Other lines, results leading:

| Kd | Binder |
| --- | --- |
| < 0.001 nM | ZW107 (antibody, V domains shown) VH: QVQLQQSGAELVRPGTSVKISCKASGYAFTNYWLGWVKQRPGHGLEWIGDIYPGNGNNYYSEKFKDKATLTADKSSSTVYIRLSSLTSEDSAVYFCARHGSFRSAMDYWGQGTSVTVSS VL: DIQMTQSPASPSASVGETVTITCRASENIYSYLAWYQQKQGKSPQLLVYNAKTLADGVPSRFSGSGSGTQFSLKINSLQPEDFGSYYCQHHYGTPPTFGGGTKLEIK |
| 1.2 nM | ZW106 (antibody, V domains shown) VH: QVQLQQPESELVRPGGSVKLSCKASGYTFTSYWMDWVKQRHGQGLEWIGNIYPDSGGTNYAEKFKSKATLTVDTSSSTAYMHLSSLTSEDSAVYYCTREEALGGYYELTYWGQGTLVTVSA VL: DIVLTQSPASLPVSLGQRATISCRASQSVSTSSYSYMHWYQQKPGQPPKLLIKYASNLESGVPARFSGSGSGTDFTLNIHPVEEEDTATYYCQHSWEIPYTFGGGTKLEIE |

Reference: patent US10899842 (dated 2021)
